Target: the molecule itself
Experiment: AUC

B1: His-tagged ALDH9A1 (aldehyde dehydrogenase 9A1) (enzyme, human, UniProt P49189 1-494, looked up)
chain: MSTGTFVVSQPLNYRGGARVEPADASGTEKAFEPATGRVIATFTCSGEKEVNLAVQNAKAAFKIWSQKSGMERCRILLEAARIIREREDEIATMECINNGKSIFEARLDIDISWQCLEYYAGLAASMAGEHIQLPGGSFGYTRREPLGVCVGIGAWNYPFQIASWKSAPALACGNAMVFKPSPFTPVSALLLAEIYSEAGVPPGLFNVVQGGAATGQFLCQHPDVAKVSFTGSVPTGMKIMEMSAKGIKPVTLELGGKSPLIIFSDCDMNNAVKGALMANFLTQGQVCCNGTRVFVQKEILDKFTEEVVKQTQRIKIGDPLLEDTRMGPLINRPHLERVLGFVKVAKEQGAKVLCGGDIYVPEDPKLKDGYYMRPCVLTNCRDDMTCVKEEIFGPVMSILSFDTEAEVLERANDTTFGLAAGVFTRDIQRAHRVVAELQAGTCFINNYNVSPVELPFGGYKKSGFGRENGRVTIEYYSQLKTVCVEMGDVESAF
stoichiometry N: 4

Source: PMC7484307 (Archives of biochemistry and biophysics, 2020)
